B1: mAb XC252 (antibody, V domains shown)
VH: EVQLQQSGAELVRPGVSVKISCKGSGYTFTDYAMHWVKQSHAKSLEWIGVISTYYGDPRDNQKFKGKATMTVDKSSSTAYMELARLTSEDSAIYYCARGDYDWYAIDYWGQGTSVTVSS
VL: DVVMTQTPLSLPVSLGDQASISCRSSQSIVHSDGNTYLEWYLQKPGQSPKLLIYKVSNRFSGVPDRFSGSGSGTDFTLKISRVEAEDLGVYYCFQGSHVPPTFGGGTKLEIK
notes: also called XC252-K2 (Lumi4 Tb cryptate labelled)
B2: anti-HER3 mAb NG140 (antibody, V domains shown)
VH: QVQLKESGPGLVKPSQSLSLTCSVTGYSITSGYYWNWIRQFPGNKLEWMGSIYYDGSNNYNPSLKNRISVTRDTSKNQFFLKLNSVTTEDTATYYCARDYDVGYAMDYWGQGASVTVSS
VL: DIVLTQSSSYLSVSLGGRVTITCKASDHINNWLAWYQQKPGNAPRLLISGATSLETGVPSRFSGSGSGKDYTLSITSLQTEDVATYYCQQYWSIPWTFGGGTKLEIK
B3: anti-HER3 mAb NG83 (antibody, V domains shown)
VH: QIQLVQSGPELKKRGETVKISCKASGYTFTNYGMNWVRQAPGKGLKCMGWINTYAGEPTYADDFKGRFAFSLDSSASTAYLQINNLKNEDMATYFCARGGITGAMDYWGQGTSVTVSS
VL: DVVMTQKTSSLSTSLGDRVTISCRASQDIRNYLNWYQQKPDGTVKLLIYYTSRLHSGVPSRFSGSGSGTDYSLTISDLEQEDIATYFCQQGNTLPWTFGGGTKLAIK
B4: anti-HER3 mAb NG33 (antibody, V domains shown)
VH: DVQLQESGPGLVKPSQSLSLTCSVTGYSITSGFYWSWIRQFPGNKLEWMGYIAYDGTSNYNPSLKNRISITRDTSKNQFFLKLKSVTNEDTPTYYCARGGGYYGQLLDYWGQGTSVTVSS
VL: DARMTQSPSSLSASLGDRVTISCRASQDISNYLNWYQQKPDGTVKVLIYNTAKLHSGVPSRFSGSGSGTDYSLTISNLEQEDFATYFCQQGKTLPWTFGGGTKLELK

How the values were obtained:
[1] = biological target: T1, IgB3 (recombinant HER3 extracellular domain fused to a human IgG Fc domain) (human, UniProt P21860 20-643); experiment: ELISA, IgB3-coated microplate, purified mAb, HRP anti-mouse IgG
T1 construct: extracellular domain; Secreted from HEK-293 cells, purified on protein G / protein A; not shown: Fc domain of a human IgG1
Procedure: FIGS. 2A-D show monoclonal antibody targeting HER3 extracellular domain. (FIG. 2A) 96 well-plates were coated with 1.5 μg/ml of IgB3, blocked with PBS-BSA (1% weight/vol) and incubated for 1 h with various concentrations of purified mAbs under gentle shaking at RT. After washing, a second 1 h-incubation with HRP-labelled anti-mouse IgG was performed and followed by incubation with 2,2′-azino-bis (3-ethylbenzothiazoline-6-sulfonic acid) for 10 min. The OD at 415 nm was measured using by an ELISA microplate reader. […] After 2 washes, the cells were incubated for 1 h at 4° C. (in the dark) with a secondary anti-mouse IgG Ab coupled to AlexaFluor 488. The fluorescence intensity (F.I.) was measured on the LSRII flow cytometer. […] After 4 washes, the content bound to the beads was eluted and analyzed by immunoblotting (IB) with an antibody to HER3/ErbB-3.
The comparison of the capacity of purified mAbs to bind with IgB3 was evaluated using ELISA (FIG. 2A). […] Each antibody was labeled with the d2-dye, and by measuring the binding of the labeled-mAb to cells presenting Lumi4(Tb)-labeled HER3 using FRET, the KD was determined and reported in Table 2, below. The values obtained correlate with the different patterns of HER3 binding determined by FACS (FIGS. 2B and 2C), although they are distinct from the patterns of IgB3 binding determined using ELISA (FIG. 2A).

HER2 (ErbB2) = biological target: T2, HER2 (ErbB2) (human, UniProt P04626 23-1255); experiment: flow cytometry on NIH/3T3 cells presenting HER2 alone
T2 construct: whole, on cells; also called NIH/3T3-HER2 cells; NIH/3T3-R2
Procedure: (§1) FIGS. 4A-B show specificity of monoclonal antibodies directed to HER3. (FIG. 4A) NIH/3T3-EGFR, -HER2, -HER3 or -EGFR/HER4 cells were incubated with 25 μg/ml of each mAb for 1.5 h at 4° C. After 2 washes, the cells were incubated for 1 h at 4° C. (in the dark) with a secondary anti-mouse IgG Ab coupled to AlexaFluor 488. The fluorescence intensity (F.I.) was measured on the LSRII flow cytometer. The negative control is made using an irrelevant mouse IgG as primary Ab. The positive control are the following mAb 565 (anti-EGFR), mAb L26 (anti-HER2), mAb 9F7 (anti-HER3), mAb 77 (anti-HER4). (FIG. 4B) The panel presents the geometric mean and the CV of the fluorescence intensity.

HER4 (ErbB4) = biological target: T3, HER4 (ErbB4) (human, UniProt Q15303 26-1308); experiment: flow cytometry on NIH/3T3 cells presenting EGFR and HER4
T3 construct: whole, on cells; also called NIH/3T3-EGFR/HER4 cells; NIH/3T3-R1R4
Procedure: as §1

[2] = biological target: T4, HER3 fused with SNAP-Tag, expressed on HEK 293 cells and labelled with Lumi4-Tb (human, UniProt P21860 20-1342, SNAP-tag labelled with BG-Lumi4(Tb)); experiment: Tag-lite FRET, d2-labelled mAb on HEK293 cells with Lumi4(Tb)-labelled HER3-SNAP-Tag
T4 construct: whole, on cells; the parts follow the printed name HER3-SNAP-Tag; also called HER3-SNAP-Tag; HEK293-HER3-SNAP-Lumi4-Tb cells; not shown: SNAP-Tag (CISbio Tag-lite plasmid)
Procedure: FIGS. 3A-E show Kd determination of mAb to HER3 using the Tag-Lite technology. Cells are transfected with HER3-SNAP-Tag and labeled with BG-Lumi4(Tb), a SNAP-tag subtract. Following incubation with increasing concentrations of indicated d2 labeled mAb directed to HER3, the Kd was determined from the binding curve fitting. The binding curve was obtained by measuring the FRET between the donor Lumi4(Tb) and the acceptor d2-dye. The unspecific binding was evaluated by adding an excess of unlabelled Ab.
TABLE 2 Kd determination of indicated mAb to HER3 using the Tag- Lite technology. Cells were transfected with HER3-SNAP- Tag and labeled withBG-Lumi4(Tb), a SNAP-tag subtract. Following incubation with increasing concentrations of indicated d2 labeled mAb directed to HER3, the Kd was determined from the binding curve fitting. The binding curve was obtained by measuring the FRET between the donor Lumi4(Tb) and the acceptor d2-dye.

EGFR (ErbB1/HER1) = biological target: T5, EGFR (ErbB1/HER1) (human, UniProt P00533 25-1210); experiment: flow cytometry on NIH/3T3 cells presenting EGFR alone
T5 construct: whole, on cells; also called NIH/3T3-EGFR cells; NIH/3T3-R1
Procedure: as §1

[3] = biological target: T4, HER3 fused with SNAP-Tag, expressed on …; experiment: Tag-lite FRET KD of Table 2, compared with the other mAbs

T4 sequence (P21860 20-1342): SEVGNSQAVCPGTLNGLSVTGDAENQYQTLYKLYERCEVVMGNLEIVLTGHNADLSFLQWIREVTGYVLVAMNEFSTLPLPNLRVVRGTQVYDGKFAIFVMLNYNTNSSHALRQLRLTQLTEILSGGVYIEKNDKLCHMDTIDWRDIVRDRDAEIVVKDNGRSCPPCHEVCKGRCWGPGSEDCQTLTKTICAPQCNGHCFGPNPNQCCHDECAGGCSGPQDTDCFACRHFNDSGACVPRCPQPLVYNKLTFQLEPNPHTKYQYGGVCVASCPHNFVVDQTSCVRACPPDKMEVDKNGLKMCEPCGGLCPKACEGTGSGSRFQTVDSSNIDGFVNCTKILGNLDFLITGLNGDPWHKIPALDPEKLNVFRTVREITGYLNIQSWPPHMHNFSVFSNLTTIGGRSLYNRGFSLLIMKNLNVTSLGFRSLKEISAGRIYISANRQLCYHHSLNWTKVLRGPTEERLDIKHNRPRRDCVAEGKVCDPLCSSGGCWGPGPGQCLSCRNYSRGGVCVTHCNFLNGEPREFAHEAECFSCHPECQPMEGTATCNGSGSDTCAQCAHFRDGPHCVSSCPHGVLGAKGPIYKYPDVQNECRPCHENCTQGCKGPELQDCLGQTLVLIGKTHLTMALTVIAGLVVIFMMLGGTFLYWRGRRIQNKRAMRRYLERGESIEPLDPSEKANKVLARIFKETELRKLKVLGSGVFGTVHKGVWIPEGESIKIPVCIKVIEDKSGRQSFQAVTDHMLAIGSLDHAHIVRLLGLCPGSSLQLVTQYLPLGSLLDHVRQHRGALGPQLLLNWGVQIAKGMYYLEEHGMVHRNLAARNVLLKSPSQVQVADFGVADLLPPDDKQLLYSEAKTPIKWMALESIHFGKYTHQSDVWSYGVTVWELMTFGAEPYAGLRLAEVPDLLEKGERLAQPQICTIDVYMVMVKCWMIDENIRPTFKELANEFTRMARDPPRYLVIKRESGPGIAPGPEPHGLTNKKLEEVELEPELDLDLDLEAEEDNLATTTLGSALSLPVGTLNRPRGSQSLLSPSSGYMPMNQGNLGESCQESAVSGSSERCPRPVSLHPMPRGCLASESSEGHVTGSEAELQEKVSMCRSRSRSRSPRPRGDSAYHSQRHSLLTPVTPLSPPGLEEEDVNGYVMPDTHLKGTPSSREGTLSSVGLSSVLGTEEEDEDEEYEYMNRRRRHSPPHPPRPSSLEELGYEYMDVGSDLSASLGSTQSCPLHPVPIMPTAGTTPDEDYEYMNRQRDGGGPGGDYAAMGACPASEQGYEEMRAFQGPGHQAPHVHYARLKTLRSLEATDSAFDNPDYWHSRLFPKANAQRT
T1 sequence (P21860 20-643): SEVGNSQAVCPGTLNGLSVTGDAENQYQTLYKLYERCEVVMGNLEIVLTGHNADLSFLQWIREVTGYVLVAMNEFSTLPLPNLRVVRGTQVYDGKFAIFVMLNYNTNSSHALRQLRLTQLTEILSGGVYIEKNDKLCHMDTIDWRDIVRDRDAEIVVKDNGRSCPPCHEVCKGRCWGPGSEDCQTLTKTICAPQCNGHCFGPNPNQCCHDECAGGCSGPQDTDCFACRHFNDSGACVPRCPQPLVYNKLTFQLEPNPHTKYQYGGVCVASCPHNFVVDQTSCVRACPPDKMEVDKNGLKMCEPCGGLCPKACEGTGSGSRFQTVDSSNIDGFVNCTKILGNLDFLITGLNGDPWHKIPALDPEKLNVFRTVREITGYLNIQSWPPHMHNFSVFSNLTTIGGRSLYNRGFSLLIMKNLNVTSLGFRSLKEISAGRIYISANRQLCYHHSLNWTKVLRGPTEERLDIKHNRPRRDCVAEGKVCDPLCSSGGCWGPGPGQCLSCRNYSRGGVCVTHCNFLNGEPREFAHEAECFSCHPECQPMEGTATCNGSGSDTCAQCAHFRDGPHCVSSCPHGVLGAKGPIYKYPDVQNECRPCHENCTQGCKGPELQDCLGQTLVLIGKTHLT
T3 sequence (Q15303 26-1308): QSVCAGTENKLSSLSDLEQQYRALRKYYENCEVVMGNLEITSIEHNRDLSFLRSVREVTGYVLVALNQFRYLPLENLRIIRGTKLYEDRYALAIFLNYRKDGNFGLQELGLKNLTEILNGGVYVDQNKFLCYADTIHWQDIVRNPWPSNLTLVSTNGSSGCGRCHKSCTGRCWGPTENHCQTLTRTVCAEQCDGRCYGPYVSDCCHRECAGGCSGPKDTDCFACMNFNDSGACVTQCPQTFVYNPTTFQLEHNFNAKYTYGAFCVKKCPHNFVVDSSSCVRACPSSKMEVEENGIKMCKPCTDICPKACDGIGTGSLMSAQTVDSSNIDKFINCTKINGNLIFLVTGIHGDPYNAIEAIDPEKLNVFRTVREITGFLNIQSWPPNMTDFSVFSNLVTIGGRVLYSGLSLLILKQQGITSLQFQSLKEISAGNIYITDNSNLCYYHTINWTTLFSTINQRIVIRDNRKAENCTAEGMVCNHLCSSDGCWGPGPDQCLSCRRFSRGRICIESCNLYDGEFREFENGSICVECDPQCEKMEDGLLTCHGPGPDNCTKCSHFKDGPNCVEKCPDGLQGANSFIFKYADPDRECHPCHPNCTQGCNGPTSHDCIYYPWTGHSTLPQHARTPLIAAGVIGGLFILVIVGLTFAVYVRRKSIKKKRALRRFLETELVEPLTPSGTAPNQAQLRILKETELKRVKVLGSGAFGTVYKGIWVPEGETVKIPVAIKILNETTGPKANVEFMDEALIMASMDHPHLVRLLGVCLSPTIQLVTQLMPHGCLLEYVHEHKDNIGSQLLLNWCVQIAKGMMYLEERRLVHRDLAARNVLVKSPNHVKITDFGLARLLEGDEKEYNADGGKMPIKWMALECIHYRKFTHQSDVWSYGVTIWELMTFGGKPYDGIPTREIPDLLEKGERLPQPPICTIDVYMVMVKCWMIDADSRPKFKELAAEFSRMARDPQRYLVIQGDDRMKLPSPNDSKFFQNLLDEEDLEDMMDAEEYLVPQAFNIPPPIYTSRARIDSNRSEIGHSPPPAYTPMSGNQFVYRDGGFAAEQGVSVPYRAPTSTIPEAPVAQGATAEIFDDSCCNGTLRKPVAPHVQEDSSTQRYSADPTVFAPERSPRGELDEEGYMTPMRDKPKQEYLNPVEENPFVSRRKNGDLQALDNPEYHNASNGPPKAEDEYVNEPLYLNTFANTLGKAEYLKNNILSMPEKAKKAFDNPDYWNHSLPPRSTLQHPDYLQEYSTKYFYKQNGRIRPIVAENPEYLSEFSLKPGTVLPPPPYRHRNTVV

Binder	EC50 [1] [nM]	binding result (HER2 (ErbB2))	binding result (HER4 (ErbB4))	Kd [2] [nM]	binding result (EGFR (ErbB1/HER1))	fold weaker affinity than the other mAbs [3] [fold]
B1	0.21	no binding (tested: 25 µg/ml)	no binding (tested: 25 µg/ml)	1.09	no binding (tested: 25 µg/ml)	–
B2	16.8	–	–	6.12	–	–
B3	–	–	–	> 14	–	10
B4	–	–	–	2.96	–	–
